These results are taken from article PMC9676401.

Experiment [1] concerns the target GFP-tagged JNK1 (JNK1β) in pEGFP-C2. Description: co-immunoprecipitation (anti-FLAG IP, anti-GFP immunoblot, densitometry). The following applies: COS-7 cells, transient transfection 48 h; parent: est. 1.0; read off a plot. Background: A western blot detects proteins with antibodies after separation by electrophoresis.
In experiment [2] the target is Full-length FLAG-tagged MKP7 C244S (catalytically inactive, substrate-trapping) (human) (UniProt Q9BY84). Description: co-IP; COS-7 cells cotransfected for 48 h in 10% FBS DMEM with FLAG-MKP7 (WT or mutants) and p38α MAPK-HA, JNK1β-GFP or ERK2-HA; Pierce IP lysis buffer; immunoprecipitation with anti-FLAG M2 overnight and protein-G beads; immunoblot with anti-HA or anti-GFP; quantitation as MAPK/FLAG-MKP7.
UniProt Q9BY84, sequence (Q9BY84 whole entry C244S): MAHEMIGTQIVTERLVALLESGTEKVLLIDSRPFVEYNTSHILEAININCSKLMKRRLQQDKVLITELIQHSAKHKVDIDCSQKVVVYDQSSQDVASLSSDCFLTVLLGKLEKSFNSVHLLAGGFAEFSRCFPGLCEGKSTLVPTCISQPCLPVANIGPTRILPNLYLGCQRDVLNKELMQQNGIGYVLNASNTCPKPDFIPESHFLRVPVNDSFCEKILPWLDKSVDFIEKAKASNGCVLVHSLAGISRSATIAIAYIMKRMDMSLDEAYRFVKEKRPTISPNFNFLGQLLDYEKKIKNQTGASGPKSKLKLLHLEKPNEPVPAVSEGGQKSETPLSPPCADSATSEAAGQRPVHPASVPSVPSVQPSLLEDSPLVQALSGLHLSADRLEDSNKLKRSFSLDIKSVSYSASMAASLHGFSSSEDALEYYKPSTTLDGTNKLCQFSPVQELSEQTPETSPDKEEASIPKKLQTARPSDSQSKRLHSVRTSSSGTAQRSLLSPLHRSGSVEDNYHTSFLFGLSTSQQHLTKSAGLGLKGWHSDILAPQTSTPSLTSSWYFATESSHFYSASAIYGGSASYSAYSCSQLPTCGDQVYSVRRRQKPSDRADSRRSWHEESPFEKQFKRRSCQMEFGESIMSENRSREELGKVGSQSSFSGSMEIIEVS

GFP-tagged JNK1 (JNK1β) in pEGFP-C2, sequence (P45983 whole entry): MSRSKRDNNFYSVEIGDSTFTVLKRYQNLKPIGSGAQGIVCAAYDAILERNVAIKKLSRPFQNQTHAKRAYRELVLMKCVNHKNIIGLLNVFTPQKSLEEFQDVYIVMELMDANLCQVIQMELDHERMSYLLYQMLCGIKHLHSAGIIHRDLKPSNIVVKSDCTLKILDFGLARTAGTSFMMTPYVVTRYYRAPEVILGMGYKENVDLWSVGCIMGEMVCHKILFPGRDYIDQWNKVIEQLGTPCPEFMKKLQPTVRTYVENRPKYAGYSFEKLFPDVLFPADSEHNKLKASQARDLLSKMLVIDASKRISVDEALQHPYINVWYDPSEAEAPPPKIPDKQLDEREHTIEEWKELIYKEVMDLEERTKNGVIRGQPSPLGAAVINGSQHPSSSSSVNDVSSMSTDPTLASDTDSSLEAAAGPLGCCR

In the case of “Full-length FLAG-tagged MKP7 WT (1-665 aa) (from UniProt Q9BY84) Y271S”, the ratio to parent in experiment [1] is 0.
The same measure, in the same setting: the result for “Full-length FLAG-tagged MKP7 WT (1-665 aa) (from UniProt Q9BY84) Y271S; C244S” reads 0.
In experiment [2], “GFP-tagged JNK1 (JNK1β) in pEGFP-C2 (enzyme)” showed a fold bound compared with WT of 3 fold.
